Laboratory results published in PMC3335857, “Heme Oxygenase Isoforms Differ in Their Subcellular Trafficking during Hypoxia and Are Differentially Modulated by Cytochrome P450 Reductase” (PLoS ONE, 2012).

Biological target: the molecule itself
Assay: SEC; 150 µg purified S-HO variant (expressed alone, or full length S-HO co-expressed and co-purified with CPR) on Superdex 200 10/300 GL; 50 mM TEA-HCl, 250 mM NaCl, pH 8.0; peaks blotted with HO antibodies

Protein | binding result
Strep-tagged full length heme oxygenase-1 (S-HO-1) (enzyme, human, UniProt P09601 1-288, looked up, human heme oxygenase 1 (HO-1), cloned from human placenta cDNA, full length; also called full length HO-1; source: Sf9, recombinant baculovirus; not shown: Strep-tag II, N-terminal, kept) MERPQPDSMPQDLSEALKEATKEVHTQAENAEFMRNFQKGQVTRDGFKLVMASLYHIYVALEEEIERNKESPVFAPVYFPEELHRKAALEQDLAFWYGPRWQEVIPYTPAMQRYVKRLHEVGRTEPELLVAHAYTRYLGDLSGGQVLKKIAQKALDLPSSGEGLAFFTFPNIASATKFKQLYRSRMNSLEMTPAVRQRVIEEAKTAFLLNIQLFEELQELLTHDTKDQSPSRAPGLRQRASNKVQDSAPVETPRGKPPLNTRSQAPLLRWVLTLSFLVATVAVGLYAM | binds
Strep-tagged full length heme oxygenase-2 (S-HO-2) (enzyme, human, UniProt P30519 1-316, looked up, human heme oxygenase 2 (HO-2), cloned from human placenta cDNA, full length; also called full length HO-2; source: Sf9, recombinant baculovirus; not shown: Strep-tag II, N-terminal, kept) MSAEVETSEGVDESEKKNSGALEKENQMRMADLSELLKEGTKEAHDRAENTQFVKDFLKGNIKKELFKLATTALYFTYSALEEEMERNKDHPAFAPLYFPMELHRKEALTKDMEYFFGENWEEQVQCPKAAQKYVERIHYIGQNEPELLVAHAYTRYMGDLSGGQVLKKVAQRALKLPSTGEGTQFYLFENVDNAQQFKQLYRARMNALDLNMKTKERIVEEANKAFEYNMQIFNELDQAGSTLARETLEDGFPVHDGKGDMRKCPFYAAEQDKGALEGSSCPFRTAMAVLRKPSLQFILAAGVALAAGLLAWYYM | binds
